T1: KRAS G13D (G13D-RT6) peptide on HLA-DQA1*05:01 / HLA-DQB1*03:01 (human)
T1 chain: YKLVVVGAGDVGKSAL


Biological target: T1, KRAS G13D (G13D-RT6) peptide on …
Assay: NFAT-luciferase; Jurkat-NFAT-Luc with the TCR and Lovo-DPA0301:DPB0501 cells loaded with G13D-RT6; against wild-type B8.2.4 TCR; full-length, on cells
Details: chains Valpha:Vbeta

Row | TCR Mut RLU/WT RLU | Binder
1 | 0.67 | B8.2.4 TCR mutant β98P-L (protein) chain 1: AQKITQTQPGMFVQEKEAVTLDCTYDTSDPSYGLFWYKQPSSGEMIFLIYQGSYDQQNATEGRYSLNFQKARKSANLVISASQLGDSAMYFCAMRERTGTASKLTFGTGTRLQVTL chain 2: DVKVTQSSRYLVKRTGEKVFLECVQDMDHENMFWYRQDPGLGLRLIYFSYDVKMKEKGDIPEGYSVSREKKERFSLILESASTNQTSMYLCASSQTVLPQHFGDGTRLSIL
2 | 0.83 | B8.2.4 TCR mutant β98P-M (protein) chain 1: AQKITQTQPGMFVQEKEAVTLDCTYDTSDPSYGLFWYKQPSSGEMIFLIYQGSYDQQNATEGRYSLNFQKARKSANLVISASQLGDSAMYFCAMRERTGTASKLTFGTGTRLQVTL chain 2: DVKVTQSSRYLVKRTGEKVFLECVQDMDHENMFWYRQDPGLGLRLIYFSYDVKMKEKGDIPEGYSVSREKKERFSLILESASTNQTSMYLCASSQTVMPQHFGDGTRLSIL
3 | 0.63 | B8.2.4 TCR mutant β98P-V (protein) chain 1: AQKITQTQPGMFVQEKEAVTLDCTYDTSDPSYGLFWYKQPSSGEMIFLIYQGSYDQQNATEGRYSLNFQKARKSANLVISASQLGDSAMYFCAMRERTGTASKLTFGTGTRLQVTL chain 2: DVKVTQSSRYLVKRTGEKVFLECVQDMDHENMFWYRQDPGLGLRLIYFSYDVKMKEKGDIPEGYSVSREKKERFSLILESASTNQTSMYLCASSQTVVPQHFGDGTRLSIL

Continued, binder first:

Row | Binder | TCR Mut RLU/WT RLU
4 | B8.2.4 TCR mutant β98P-R (protein) chain 1: AQKITQTQPGMFVQEKEAVTLDCTYDTSDPSYGLFWYKQPSSGEMIFLIYQGSYDQQNATEGRYSLNFQKARKSANLVISASQLGDSAMYFCAMRERTGTASKLTFGTGTRLQVTL chain 2: DVKVTQSSRYLVKRTGEKVFLECVQDMDHENMFWYRQDPGLGLRLIYFSYDVKMKEKGDIPEGYSVSREKKERFSLILESASTNQTSMYLCASSQTVRPQHFGDGTRLSIL | 0.73
5 | B8.2.4 TCR mutant β98P-S (protein) chain 1: AQKITQTQPGMFVQEKEAVTLDCTYDTSDPSYGLFWYKQPSSGEMIFLIYQGSYDQQNATEGRYSLNFQKARKSANLVISASQLGDSAMYFCAMRERTGTASKLTFGTGTRLQVTL chain 2: DVKVTQSSRYLVKRTGEKVFLECVQDMDHENMFWYRQDPGLGLRLIYFSYDVKMKEKGDIPEGYSVSREKKERFSLILESASTNQTSMYLCASSQTVSPQHFGDGTRLSIL | 0.94
6 | B8.2.4 TCR mutant β98P-W (protein) chain 1: AQKITQTQPGMFVQEKEAVTLDCTYDTSDPSYGLFWYKQPSSGEMIFLIYQGSYDQQNATEGRYSLNFQKARKSANLVISASQLGDSAMYFCAMRERTGTASKLTFGTGTRLQVTL chain 2: DVKVTQSSRYLVKRTGEKVFLECVQDMDHENMFWYRQDPGLGLRLIYFSYDVKMKEKGDIPEGYSVSREKKERFSLILESASTNQTSMYLCASSQTVWPQHFGDGTRLSIL | 0.81
